First the molecules themselves.
B1: Hairpin Ribozyme (parent)
chain: GUCCUCUUUCACGUGCGCGUGAAAGAGAGAAGUGAACCAGAGAAACACACGUUGUGGUAUAUUACCUGGUA

Consider 38 variants from the RNAGym collection of RNA variant scans (doi:10.7554/elife.80360).

In the series the parent is B1. In words: self-cleavage, relative activity (ratio to wild type); higher = more cleavage; co-transcriptional.
Take GUCCUCUUUCACGUGCGCGUGAAAGAGAGAAGUGAACCAGAGAAACACACGGUGUGGUCUAUUACCUGGUA [U52G A59C]: the self-cleavage was found to be 0.206.

For GUCCUCUUUCACGUGCGCGUGAAAGAGAGAAGUGAACCAGAGAAACACACGGUGUGGUGUAUUACCUGGUA [U52G A59G], the self-cleavage was determined as 0.25.

GUCCUCUUUCACGUGCGCGUGAAAGAGAGAAGUGAACCAGAGAAACACACGCUGUGGUAUAUUGCCUGGUA [U52C A64G]: the self-cleavage stood at 0.546.

With GUCCUCUUUCACGUGCGCGUGAAAGAGAGAAGUGAACCAGAGAAACACACGCUGUGGUAUAUUCCCUGGUA [U52C A64C], the self-cleavage turned out to be 0.128.

As to GUCCUCUUUCACGUGCGCGUGAAAGAGAGAAGUGAACCAGAGAAACACACGAUGUGGUAUCUUACCUGGUA [U52A A61C], the self-cleavage was 0.256.

For GUCCUCUUUCACGUGCGCGUGAAAGAGAGAAGUGAACCAGAGAAACACACGCUGUGAUAUAUUACCUGGUA [U52C G57A], the self-cleavage is 0.223.

For the variant GUCCUCUUUCACGUGCGCGUGAAAGAGAGAAGUGAACCAGAGAAACACACGCUGUGCUAUAUUACCUGGUA [U52C G57C], the self-cleavage stood at 0.123.

Regarding GUCCUCUUUCACGUGCGCGUGAAAGAGAGAAGUGAACCAGAGAAACACACGAUGUGGUAUAUAACCUGGUA [U52A U63A], the self-cleavage was 0.424.

With GUCCUCUUUCACGUGCGCGUGAAAGAGAGAAGUGAACCAGAGAAACACACGAUGUGGUAUAUCACCUGGUA [U52A U63C], the self-cleavage came to 0.32.

Take GUCCUCUUUCACGUGCGCGUGAAAGAGAGAAGUGAACCAGAGAAACACACUUUGUGGUAUAUUACCUGGUA [G51U]: the self-cleavage amounted to 1.03.

GUCCUCUUUCACGUGCGCGUGAAAGAGAGAAGUGAACCAGAGAAACACACGCUGUGGUAUAUUAUCUGGUA [U52C C65U]: the self-cleavage was 0.471.

Take GUCCUCUUUCACGUGCGCGUGAAAGAGAGAAGUGAACCAGAGAAACACACGCUGUGGUAUAUUAACUGGUA [U52C C65A]: the self-cleavage came out at 1.2.

For GUCCUCUUUCACGUGCGCGUGAAAGAGAGAAGUGAACCAGAGAAACACACUUUGUGGUAUAUUGCCUGGUA [G51U A64G], the self-cleavage was 0.544.

As for GUCCUCUUUCACGUGCGCGUGAAAGAGAGAAGUGAACCAGAGAAACACACGAUGUGGUAUAUUCCCUGGUA [U52A A64C], the self-cleavage was determined as 0.253.

As for GUCCUCUUUCACGUGCGCGUGAAAGAGAGAAGUGAACCAGAGAAACACACGAUGUGGUAUAUUGCCUGGUA [U52A A64G], the self-cleavage worked out at 0.603.

Take GUCCUCUUUCACGUGCGCGUGAAAGAGAGAAGUGAACCAGAGAAACACACGCUGUGGUAAAUUACCUGGUA [U52C U60A]: the self-cleavage came out at 1.14.

Take GUCCUCUUUCACGUGCGCGUGAAAGAGAGAAGUGAACCAGAGAAACACACUUUGUGGUAUAUUACCUAGUA [G51U G68A]: the self-cleavage amounted to 0.312.

With GUCCUCUUUCACGUGCGCGUGAAAGAGAGAAGUGAACCAGAGAAACACACUUUGUGGUAUAUUACCUCGUA [G51U G68C], the self-cleavage came to 0.274.

GUCCUCUUUCACGUGCGCGUGAAAGAGAGAAGUGAACCAGAGAAACACACGAUGUGGUAUAUUAGCUGGUA [U52A C65G]: the self-cleavage was found to be 0.258.

With GUCCUCUUUCACGUGCGCGUGAAAGAGAGAAGUGAACCAGAGAAACACACGCUGUGGUAUAAUACCUGGUA [U52C U62A], the self-cleavage turned out to be 0.32.

Take GUCCUCUUUCACGUGCGCGUGAAAGAGAGAAGUGAACCAGAGAAACACACGCUGUGGUAUAUUACGUGGUA [U52C C66G]: the self-cleavage came out at 0.244.

Regarding GUCCUCUUUCACGUGCGCGUGAAAGAGAGAAGUGAACCAGAGAAACACACUUUGUGGUAUAUUACCUGAUA [G51U G69A], the self-cleavage was found to be 0.457.

Regarding GUCCUCUUUCACGUGCGCGUGAAAGAGAGAAGUGAACCAGAGAAACACACUUUGUGGUAUAUUACCUGUUA [G51U G69U], the self-cleavage came out at 0.287.

With GUCCUCUUUCACGUGCGCGUGAAAGAGAGAAGUGAACCAGAGAAACACACGGUGUGGUAUAUUACCUGGUC [U52G A71C], the self-cleavage was 1.32.

As for GUCCUCUUUCACGUGCGCGUGAAAGAGAGAAGUGAACCAGAGAAACACACGAUGAGGUAUAUUACCUGGUA [U52A U55A], the self-cleavage amounted to 0.33.

With GUCCUCUUUCACGUGCGCGUGAAAGAGAGAAGUGAACCAGAGAAACACACGAUGCGGUAUAUUACCUGGUA [U52A U55C], the self-cleavage came out at 0.438.

In the case of GUCCUCUUUCACGUGCGCGUGAAAGAGAGAAGUGAACCAGAGAAACACACGCUGUGGUUUAUUACCUGGUA [U52C A59U], the self-cleavage amounted to 0.115.

Take GUCCUCUUUCACGUGCGCGUGAAAGAGAGAAGUGAACCAGAGAAACACACUUUGUGGUAUCUUACCUGGUA [G51U A61C]: the self-cleavage came to 0.109.

As to GUCCUCUUUCACGUGCGCGUGAAAGAGAGAAGUGAACCAGAGAAACACACGCUGUGGGAUAUUACCUGGUA [U52C U58G], the self-cleavage worked out at 0.606.

In the case of GUCCUCUUUCACGUGCGCGUGAAAGAGAGAAGUGAACCAGAGAAACACACGAUGUGGUAUAUUACCUAGUA [U52A G68A], the self-cleavage amounted to 0.337.

As to GUCCUCUUUCACGUGCGCGUGAAAGAGAGAAGUGAACCAGAGAAACACACGAUGUGGUAUAUUACCUUGUA [U52A G68U], the self-cleavage was found to be 0.309.

On to GUCCUCUUUCACGUGCGCGUGAAAGAGAGAAGUGAACCAGAGAAACACACGAUGUGGUAUAUUACCUGUUA [U52A G69U], for which the self-cleavage worked out at 0.325.

Consider GUCCUCUUUCACGUGCGCGUGAAAGAGAGAAGUGAACCAGAGAAACACACGAUGUGGUAUAUUACCUGAUA [U52A G69A], for which the self-cleavage was 0.464.

Consider GUCCUCUUUCACGUGCGCGUGAAAGAGAGAAGUGAACCAGAGAAACACACUUUGUGGUAUAUUAGCUGGUA [G51U C65G], for which the self-cleavage was 0.354.

GUCCUCUUUCACGUGCGCGUGAAAGAGAGAAGUGAACCAGAGAAACACACGCUGUGGUAUAUUACCCGGUA [U52C U67C]: the self-cleavage is 0.274.

As to GUCCUCUUUCACGUGCGCGUGAAAGAGAGAAGUGAACCAGAGAAACACACGAUGUGGUAGAUUACCUGGUA [U52A U60G], the self-cleavage is 0.54.

Regarding GUCCUCUUUCACGUGCGCGUGAAAGAGAGAAGUGAACCAGAGAAACACACUUUGUGGUCUAUUACCUGGUA [G51U A59C], the self-cleavage came out at 0.103.

Regarding GUCCUCUUUCACGUGCGCGUGAAAGAGAGAAGUGAACCAGAGAAACACACUUUGUGGUAUAUUACAUGGUA [G51U C66A], the self-cleavage was 0.192.
